Assay results taken from the supplement of paper PMC9233669.
Variants at the floor of the assay were thinned out.

Each sequence was assayed on biotinyl-Phe-oxazolone (assay: self-aminoacylation, catalytic enhancement (BFO) (fold over background); higher = more active; k-Seq, kA / k0A0; sequences stand for … in GGGAAUGGAUCCACAUCUACGAAUUC…UUCACUGCAGACUUGACGAAGCUG).
Outline: (§1)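 Mutagenized RNA pools with a 21-nt variable region (0.43 μM) were reacted with each biotinyl-aminoacyl-oxazolone at 2–1250 μM for 90 minutes at room temperature, in 50 μL HEPES/NaCl/KCl/MgCl2/CaCl2 buffer containing 5% acetonitrile at pH 6.9–7.0. RNA captured on streptavidin was quantified by triplicate qPCR and by Illumina sequencing. The fraction reacted for each sequence was fit to a pseudo-first-order model with bootstrapping, and catalytic enhancement is the median kA divided by the uncatalyzed rate, taken as the low-activity peak of a bimodal Gaussian fit.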

Row | Sequence | self-aminoacylation
1 | AAGUUUGGUAAAAGUCGCAAG [Fam3.1 aminoacylation ribozyme variant] | 2.32
2 | AUUCACCUAGGUCAUCCGGUU [Fam2.2 aminoacylation ribozyme variant] | 9.74
3 | AAGUUUGCUCACAGUCGCAAG [Fam3.1 aminoacylation ribozyme variant] | 2.76
4 | CAACUUCAAACAAUCGAUCUG [Fam1A.1 aminoacylation ribozyme variant] | 3.33
5 | AUUCACUUAGGUCGUCGGGUG [Fam2.2 aminoacylation ribozyme variant] | 4.92
6 | CUACUUCCAACGAUCGGUCUG [Fam1A.1 aminoacylation ribozyme variant] | 3.05
7 | AAGUUUCCUAAUAGUCUCAAG [Fam3.1 aminoacylation ribozyme variant] | 2.15
8 | GUACUGCAAACAAUCGGUCUG [Fam1A.1 aminoacylation ribozyme variant] | 3.7
9 | AGUCACCUAGGUCAUCGUGUG [Fam2.2 aminoacylation ribozyme variant] | 7.83
10 | CCACACUUCAAACAAUCGAUC [Fam1B.1 aminoacylation ribozyme variant] | 2.59
11 | AAGUCUGCUGAUAGUCGCAAG [Fam3.1 aminoacylation ribozyme variant] | 3.91
12 | CUGCUUCAAACAAUCCGUCUG [Fam1A.1 aminoacylation ribozyme variant] | 2.71
13 | CUACUGCAAUCAAUCGGUCUG [Fam1A.1 aminoacylation ribozyme variant] | 2.9
14 | GAGUUUGCUAAUAGUAGCAAG [Fam3.1 aminoacylation ribozyme variant] | 3.32
15 | CUAGUUCAAACAAUCGGUAUG [Fam1A.1 aminoacylation ribozyme variant] | 3.27
16 | AAGUUUGCUAAUACUCGCGAG [Fam3.1 aminoacylation ribozyme variant] | 5.73
17 | CUACUUCAGACAAUCGGGCUG [Fam1A.1 aminoacylation ribozyme variant] | 3.52
18 | CAGUUUGCUAAUAGUCGCUAG [Fam3.1 aminoacylation ribozyme variant] | 2.2
19 | AAGUUUGCUAAUGGCCGCAAG [Fam3.1 aminoacylation ribozyme variant] | 4.21
20 | AAGUAUGCUAAUAGUCGCUAG [Fam3.1 aminoacylation ribozyme variant] | 2.24
21 | AUUACCCUGGUGAUCGUGUGA [Fam2.1 aminoacylation ribozyme variant] | 5.71
22 | AAGUUUGCUAAAAGUCGCAUG [Fam3.1 aminoacylation ribozyme variant] | 2.71
23 | AAGGUUGCUAAUAGUCCCAAG [Fam3.1 aminoacylation ribozyme variant] | 2.86
24 | GUACUUCGAACAAUCGGUCUG [Fam1A.1 aminoacylation ribozyme variant] | 5.74

Row | Sequence | self-aminoacylation
25 | AAGUUUAAUAAUAGUCGCAAG [Fam3.1 aminoacylation ribozyme variant] | 2.22
26 | CCACACUUCAGGCAAUCCGUC [Fam1B.1 aminoacylation ribozyme variant] | 2.08
27 | CUCCUUCAAACAGUCGGUCUG [Fam1A.1 aminoacylation ribozyme variant] | 3.98
28 | AUUACCCUGGUCAUCGAGAGG [Fam2.1 aminoacylation ribozyme variant] | 2.47
29 | AAGUUUACUAAUAGUCGCACG [Fam3.1 aminoacylation ribozyme variant] | 2.22
30 | AAGCUUACUAAUAGUCGCAAG [Fam3.1 aminoacylation ribozyme variant] | 3.02
31 | AAUUUUGCUAAUGGUCGCAAG [Fam3.1 aminoacylation ribozyme variant] | 3.61
32 | AUUCUCCUAGGUCAUCGGGUC [Fam2.2 aminoacylation ribozyme variant] | 4.09
33 | AAGCUUGCUAAUAAUCGCAAG [Fam3.1 aminoacylation ribozyme variant] | 2.2
34 | CGACACUUCAGGCAAUCGGUC [Fam1B.1 aminoacylation ribozyme variant] | 2.04
35 | AUUACCCUGGUCGUCGUGUGA [Fam2.1 aminoacylation ribozyme variant] | 9.58
36 | AUUCACCUAGGUCGUCGUGUG [Fam2.2 aminoacylation ribozyme variant] | 3.62
37 | AUUCACCUAGGUCGUCUGGUG [Fam2.2 aminoacylation ribozyme variant] | 5.84
38 | CCACAUUUCAAGCAAUCGGUC [Fam1B.1 aminoacylation ribozyme variant] | 3.26
39 | AGGUUUGUUAAUAGUCGCAAG [Fam3.1 aminoacylation ribozyme variant] | 3.87
40 | AAGCUUGCUAAUAGUCCCAAG [Fam3.1 aminoacylation ribozyme variant] | 3.57
41 | ACGUUAGCUAAUAGUCGCAAG [Fam3.1 aminoacylation ribozyme variant] | 3.08
42 | AAGUUUUCUAAUAGCCGCAAG [Fam3.1 aminoacylation ribozyme variant] | 2.19
43 | AAGUUAGCUAAUUGUCGCAAG [Fam3.1 aminoacylation ribozyme variant] | 2.54
44 | AUUUCCCUGGUCAUCGAGUUA [Fam2.1 aminoacylation ribozyme variant] | 2.12
45 | AUGUUUGCUAAUAGUCGGAAG [Fam3.1 aminoacylation ribozyme variant] | 5.76
46 | AAGUUUGCGCAUAGUCGCAAG [Fam3.1 aminoacylation ribozyme variant] | 2.97
47 | CUACAUCAAACAAUGGGUCUG [Fam1A.1 aminoacylation ribozyme variant] | 2.95
48 | AAGUUCGCUAGUAGUCGCAAG [Fam3.1 aminoacylation ribozyme variant] | 4.51

Row | Sequence | self-aminoacylation
49 | CCACAUUUCAAGAAAUCGGUC [Fam1B.1 aminoacylation ribozyme variant] | 2.09
50 | GCACACUUCAAGCAAACGGUC [Fam1B.1 aminoacylation ribozyme variant] | 2.05
51 | CUACUUCAAAAACUCGGUCUG [Fam1A.1 aminoacylation ribozyme variant] | 2.19
52 | AAGUUUACUAAUAGUCGUAAG [Fam3.1 aminoacylation ribozyme variant] | 2.3
53 | AAGUUUGCUAACAGUCGCAGG [Fam3.1 aminoacylation ribozyme variant] | 3.44
54 | ACUCACCUAGGUCAUCGUGUG [Fam2.2 aminoacylation ribozyme variant] | 4.06
55 | CAACUUUAAACAAUCGGUCUG [Fam1A.1 aminoacylation ribozyme variant] | 2.09
56 | AAGGUUGCUACUAGUCGCAAG [Fam3.1 aminoacylation ribozyme variant] | 4
57 | AAGUUUCCAAAUAGUCGCAAG [Fam3.1 aminoacylation ribozyme variant] | 2.83
58 | AUUACCCUGGUCAUCGUGUGU [Fam2.1 aminoacylation ribozyme variant] | 2.45
59 | AAGAUGGCUAAUAGUCGCAAG [Fam3.1 aminoacylation ribozyme variant] | 2.14
60 | CUACUUCAAACACUCGGUCGG [Fam1A.1 aminoacylation ribozyme variant] | 5.02
61 | ACACACUUCAAGCAAUCGAUC [Fam1B.1 aminoacylation ribozyme variant] | 2.02
62 | AUUCACCUAGGUGAGCGGGUG [Fam2.2 aminoacylation ribozyme variant] | 7.25
63 | CAGUUUGCUCAUAGUCGCAAG [Fam3.1 aminoacylation ribozyme variant] | 2.06
64 | AAGUUAGCGAAUAGUCGCAAG [Fam3.1 aminoacylation ribozyme variant] | 2.1
65 | CCACGCAUCAAGCAAUCGGUC [Fam1B.1 aminoacylation ribozyme variant] | 3.83
66 | AUUCACCUAGGUCAUCCGGUC [Fam2.2 aminoacylation ribozyme variant] | 4.67
67 | CUACUGCAAACAGUCGGUCUG [Fam1A.1 aminoacylation ribozyme variant] | 2.04
68 | AAGUUUGCUCAUAGUCGCAGG [Fam3.1 aminoacylation ribozyme variant] | 2.92
69 | AAGUAUGCUAAGAGUCGCAAG [Fam3.1 aminoacylation ribozyme variant] | 4.08
70 | AAGUCUCCUAAUAGUCGCAAG [Fam3.1 aminoacylation ribozyme variant] | 3.11
71 | CAACACUUCAAGCAAUCGGAC [Fam1B.1 aminoacylation ribozyme variant] | 2.37
72 | AUUACCCUGGCCAUCGUGUGA [Fam2.1 aminoacylation ribozyme variant] | 6.7

What follows are sequences tested on biotinyl-Trp-oxazolone (assay: self-aminoacylation, catalytic enhancement (BWO) (fold over background); higher = more active; k-Seq, kA / k0A0; sequences stand for … in GGGAAUGGAUCCACAUCUACGAAUUC…UUCACUGCAGACUUGACGAAGCUG).
Outline: as §1

Row | Sequence | self-aminoacylation
73 | AAGUUUGCUAAAAGUCGCCAG [Fam3.1 aminoacylation ribozyme variant] | 2.25
74 | AUUACGCUGCUCAUCGAGUGA [Fam2.1 aminoacylation ribozyme variant] | 2.69
75 | AAGUAUGCUAAUAGUCGCCAG [Fam3.1 aminoacylation ribozyme variant] | 3.29
76 | AAGUUUGCUAAUAUUCCCAAG [Fam3.1 aminoacylation ribozyme variant] | 2.1
77 | CCACACUCCAGGCAAUCGGUC [Fam1B.1 aminoacylation ribozyme variant] | 2.04
